These results are taken from patent publication CN115960228A (UNIV XUZHOU MEDICAL, dated 2023).

This assay concerns the target T1, CD19 protein on the cell surface (细胞表面的CD19蛋白) (human, UniProt P15391 20-556).
T1 construct: whole, on cells; also called 人CD19
T1 sequence (looked up): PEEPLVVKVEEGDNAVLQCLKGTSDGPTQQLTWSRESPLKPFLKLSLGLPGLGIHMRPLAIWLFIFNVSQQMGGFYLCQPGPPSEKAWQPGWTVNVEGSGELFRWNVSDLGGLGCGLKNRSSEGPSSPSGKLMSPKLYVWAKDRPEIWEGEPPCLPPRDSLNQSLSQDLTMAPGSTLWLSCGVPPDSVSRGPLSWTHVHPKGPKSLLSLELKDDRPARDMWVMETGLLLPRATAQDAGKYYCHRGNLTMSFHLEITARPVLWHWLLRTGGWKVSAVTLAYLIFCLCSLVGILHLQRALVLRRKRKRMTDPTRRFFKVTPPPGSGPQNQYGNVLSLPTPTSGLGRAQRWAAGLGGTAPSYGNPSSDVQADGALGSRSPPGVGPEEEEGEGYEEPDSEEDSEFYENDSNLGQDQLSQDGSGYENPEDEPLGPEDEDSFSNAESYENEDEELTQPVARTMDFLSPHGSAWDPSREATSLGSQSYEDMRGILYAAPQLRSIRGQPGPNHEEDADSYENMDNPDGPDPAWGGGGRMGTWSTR
Kind of assay: flow cytometry on cells; antibody purified from cell supernatant or ascites, compared with hybridoma supernatant.

B1: CD19-6E1B8抗体 (anti-human CD19 monoclonal antibody, clone 6E1B8) (antibody, V domains shown)
VH: EVQLKESGPGLVAPSQSLSITCTVSGFSLTSHGVSWVRQPPGKGLEWLGVIWGDGRTSYHSALISRLSISKSDSKSQVFLKLNSLQTDDTATYYCAKKGAYYGSDYRYYAMDSWGQGTSVTVSS
VL: DIQLTQTPLSLPVSLGDQASISCRSSQSLVYSNGNTYLHWYLQKPGQSPKLLIYKASNRFSGVPDRFSGSGSGTDFTLKISRVEAEDLGVYFCSQSTHVPWTFGGGTKLEIKR
notes: It was purified on Protein G from ascites or from cell supernatant; also called CD19抗体; 抗CD19的单克隆抗体
For the molecule B1, the binding result is listed as “binds”.
